Consider 2 molecules from patent publication US20240376185A1 (SMIVET B V, published 2024).

Assay [1] has as its target tetanus neurotoxin (TeNT), authentic tetanus holotoxin (Clostridium tetani, UniProt P04958 2-1315). Put plainly: BLI (Octet Red96); avidity (bivalent for TeNT); format for this SDA not told.
The target of assay [2] is T1, human serum albumin (human, UniProt P02768 25-609).
T1 construct: mature; also called human Alb
Put plainly: ELISA, coated albumin, E. coli supernatant. Further: test concentration or dose not given here. Background: ELISA stands for enzyme-linked immunosorbent assay.

Assay [3] addresses T1, human serum albumin. The assay is described as follows: ELISA, E. coli supernatant.

tetanus neurotoxin (TeNT), authentic tetanus holotoxin, sequence (P04958 2-457 limits assumed, chain 1 of 2): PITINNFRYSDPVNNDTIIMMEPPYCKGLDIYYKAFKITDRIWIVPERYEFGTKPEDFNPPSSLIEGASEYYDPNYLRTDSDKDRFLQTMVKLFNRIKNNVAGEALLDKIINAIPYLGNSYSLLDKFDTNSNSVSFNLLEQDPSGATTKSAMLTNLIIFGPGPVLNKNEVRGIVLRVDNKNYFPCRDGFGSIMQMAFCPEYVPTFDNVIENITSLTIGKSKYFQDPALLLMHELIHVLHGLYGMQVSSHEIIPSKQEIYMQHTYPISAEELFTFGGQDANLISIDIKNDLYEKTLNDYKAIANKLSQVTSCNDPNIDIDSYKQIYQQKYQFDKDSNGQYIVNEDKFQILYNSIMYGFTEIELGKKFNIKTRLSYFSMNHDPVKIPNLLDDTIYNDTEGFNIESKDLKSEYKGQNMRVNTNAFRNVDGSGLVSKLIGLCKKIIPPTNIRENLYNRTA
tetanus neurotoxin (TeNT), authentic tetanus holotoxin, sequence (P04958 458-1315 limits assumed, chain 2 of 2): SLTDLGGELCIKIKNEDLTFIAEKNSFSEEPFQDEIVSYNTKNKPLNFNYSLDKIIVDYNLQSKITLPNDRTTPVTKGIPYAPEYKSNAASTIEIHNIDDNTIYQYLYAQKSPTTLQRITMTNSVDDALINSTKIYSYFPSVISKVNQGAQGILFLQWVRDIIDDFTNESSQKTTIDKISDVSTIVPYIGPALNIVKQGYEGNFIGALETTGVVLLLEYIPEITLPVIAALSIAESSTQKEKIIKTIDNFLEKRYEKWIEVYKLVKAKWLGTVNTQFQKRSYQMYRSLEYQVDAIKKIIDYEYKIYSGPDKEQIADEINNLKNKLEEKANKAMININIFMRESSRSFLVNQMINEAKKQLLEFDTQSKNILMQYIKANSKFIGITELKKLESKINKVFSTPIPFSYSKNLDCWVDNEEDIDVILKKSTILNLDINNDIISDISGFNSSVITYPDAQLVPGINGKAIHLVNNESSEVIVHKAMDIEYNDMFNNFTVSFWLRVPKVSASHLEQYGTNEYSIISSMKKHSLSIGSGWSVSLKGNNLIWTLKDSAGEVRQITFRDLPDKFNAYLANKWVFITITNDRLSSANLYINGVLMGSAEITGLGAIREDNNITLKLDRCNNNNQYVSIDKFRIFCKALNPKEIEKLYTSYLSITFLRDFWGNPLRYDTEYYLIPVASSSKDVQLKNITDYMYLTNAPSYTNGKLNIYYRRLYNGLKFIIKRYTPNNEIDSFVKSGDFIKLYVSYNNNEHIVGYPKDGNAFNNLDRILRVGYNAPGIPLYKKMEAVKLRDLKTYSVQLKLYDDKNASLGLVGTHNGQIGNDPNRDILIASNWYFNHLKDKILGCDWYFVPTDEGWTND

B1: SVT06-GS3-SVT02-GS2-SVG06M4-H6 (bispecific antibody)
chain: QVQLQESGGGSVQAGGSLRLSCTASELSYDDYTIAWFRRAAGEGRVEDGEGVASITKSYDRAYDNKINYGHSVKGRFTISRDNAKNTVYLQMTDLLPSDTAVYYCALDITPPGGVGASLTEGFLFDYWGQGTQVTVSSGGGGSGGGGSGGGGSQVQLQQSGGGSVQAGGSLRLSCVGPQRTFSTYGMGWFRQAPGKEREFVAGINYKGDTTYYADSVKGRFTISRDNAKNTLYLQMDSLKPEDRAVYQCARKGGLGGDYRDAGQYRYWGQGTQVTVSSGGGGSGGGSEVQLVESGGALVQPGGSLRLSCAASGFPFSAYDMTWVRQAPGQGLEWVSTIHKSGGITTYADSVKGRFTISRDNAKNTLYLQMNNLESEDTAVYYCAKALRAHNSDYVGRNALGSWGQGTQVTVSSHHHHHH
For B1, in assay [1], the Kd stood at 0.13 nM; the dissociation rate constant (koff) – broadly, the rate constant with which the complex falls apart – stood at 4.27e-05 s⁻¹; the kon (as a rule, the rate constant with which the complex forms) amounted to 329000 M⁻¹ s⁻¹.

B2: SVA04 (VHH, not shown: large carriers)
VHH: QVQLQQSGGGLVQAGGSLRLACAASGRTLSSYVMGWFRQAPGKEREFVAAISWSGGSTYYADSVKGRFTISRDNAKNTVYLQMNSLKPEDTAVYYCAATLRGSNRYYSGRVYDYWGQGTQVTVSS
Regarding B2, the “absorbance at 450 nm” value in assay [2] worked out at 0.085 A450. In addition, the binding result in assay [3] is “no binding”.
